Source: article PMC3792040, “Nectin-3 (CD113) Interacts with Nectin-2 (CD112) to Promote Lymphocyte Transendothelial Migration” (PLoS ONE, 2013)

The binders below were run against T1, soluble Nectin-3 (Nec3-Fc) (human, UniProt Q9NQS3 58-404, biotin (the soluble copy in the in vitro binding assay: 'Biotinylated Nec3-Fc')) (assay: ELISA; Fc proteins (10^-7 M) captured on wells by goat anti-human Fc, 2 h 37 °C; free anti-Fc blocked with human immunoglobulin; biotinylated Nec3-Fc (10^-7 M) incubated 2 h at 37 °C in the absence of Ca2+; streptavidin peroxidase, ABTS). Conditions: both partners purified.
T1 construct: Nectin-3 (CD113), human, recombinant soluble form fused to Fc; Probably the extracellular domain; Biotinylated as analyte in the ELISA, not biotinylated when captured in the ELISA or used on cells; also called CD113; source: COS cells, transfected, purified from supernatants on Affi-Gel protein A
T1 sequence (Q9NQS3 58-404): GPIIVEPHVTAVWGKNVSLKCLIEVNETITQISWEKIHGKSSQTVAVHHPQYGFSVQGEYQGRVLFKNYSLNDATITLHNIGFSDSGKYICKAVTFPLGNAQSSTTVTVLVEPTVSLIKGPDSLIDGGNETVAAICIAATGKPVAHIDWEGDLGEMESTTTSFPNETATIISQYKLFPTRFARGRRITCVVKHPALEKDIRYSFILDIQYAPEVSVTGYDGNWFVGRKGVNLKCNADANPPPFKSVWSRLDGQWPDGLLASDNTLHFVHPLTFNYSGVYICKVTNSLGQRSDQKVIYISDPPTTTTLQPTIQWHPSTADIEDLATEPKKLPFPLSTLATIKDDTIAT

binding result | Binder
binds | Nec2-Fc (Fc fusion, human, UniProt Q92692 32-360, looked up, Nectin-2 (CD112), human, soluble form fused to Fc; Probably the extracellular domain; also called Nectin-2; CD112; source: COS cells, transfected, purified from supernatants on Affi-Gel protein A) QDVRVQVLPEVRGQLGGTVELPCHLLPPVPGLYISLVTWQRPDAPANHQNVAAFHPKMGPSFPSPKPGSERLSFVSAKQSTGQDTEAELQDATLALHGLTVEDEGNYTCEFATFPKGSVRGMTWLRVIAKPKNQAEAQKVTFSQDPTTVALCISKEGRPPARISWLSSLDWEAKETQVSGTLAGTVTVTSRFTLVPSGRADGVTVTCKVEHESFEEPALIPVTLSVRYPPEVSISGYDDNWYLGRTDATLSCDVRSNPEPTGYDWSTTSGTFPTSAVAQGSQLVIHAVDSLFNTTFVCTVTNAVGMGRAEQVIFVRETPNTAGAGATGG
binds | Nec1-Fc (Fc fusion, human, UniProt Q15223 31-355, looked up, Nectin-1 (CD111), human, soluble form fused to Fc; Probably the extracellular domain; also called Nectin-1; CD111; source: COS cells, transfected, purified from supernatants on Affi-Gel protein A) QVVQVNDSMYGFIGTDVVLHCSFANPLPSVKITQVTWQKSTNGSKQNVAIYNPSMGVSVLAPYRERVEFLRPSFTDGTIRLSRLELEDEGVYICEFATFPTGNRESQLNLTVMAKPTNWIEGTQAVLRAKKGQDDKVLVATCTSANGKPPSVVSWETRLKGEAEYQEIRNPNGTVTVISRYRLVPSREAHQQSLACIVNYHMDRFKESLTLNVQYEPEVTIEGFDGNWYLQRMDVKLTCKADANPPATEYHWTTLNGSLPKGVEAQNRTLFFKGPINYSLAGTYICEATNPIGTRSGQVEVNITEFPYTPSPPEHGRRAGPVPTA
binds | PVR-Fc (Fc fusion, human, UniProt P15151 21-343, looked up, PVR (CD155, Necl-5), human, soluble form fused to Fc; Probably the extracellular domain; also called CD155; Necl-5; source: COS cells, transfected, purified from supernatants on Affi-Gel protein A) WPPPGTGDVVVQAPTQVPGFLGDSVTLPCYLQVPNMEVTHVSQLTWARHGESGSMAVFHQTQGPSYSESKRLEFVAARLGAELRNASLRMFGLRVEDEGNYTCLFVTFPQGSRSVDIWLRVLAKPQNTAEVQKVQLTGEPVPMARCVSTGGRPPAQITWHSDLGGMPNTSQVPGFLSGTVTVTSLWILVPSSQVDGKNVTCKVEHESFEKPQLLTVNLTVYYPPEVSISGYDNNWYLGQNEATLTCDARSNPEPTGYNWSTTMGPLPPFAVAQGAQLLIRPVDKPINTTLICNVTNALGARQAELTVQVKEGPPSEHSGISRN
